Measurements: patent publication US20190112362A1 (published 2019)

Target: Human Tau monomer (recombinant 2N4R isoform, amino acids 2-441) (human, UniProt P10636 2-441)
Assay: SPR

Sequence of Human Tau monomer (recombinant 2N4R isoform, amino acids 2-441) (P10636 other isoform, or with tags, fused parts or gaps): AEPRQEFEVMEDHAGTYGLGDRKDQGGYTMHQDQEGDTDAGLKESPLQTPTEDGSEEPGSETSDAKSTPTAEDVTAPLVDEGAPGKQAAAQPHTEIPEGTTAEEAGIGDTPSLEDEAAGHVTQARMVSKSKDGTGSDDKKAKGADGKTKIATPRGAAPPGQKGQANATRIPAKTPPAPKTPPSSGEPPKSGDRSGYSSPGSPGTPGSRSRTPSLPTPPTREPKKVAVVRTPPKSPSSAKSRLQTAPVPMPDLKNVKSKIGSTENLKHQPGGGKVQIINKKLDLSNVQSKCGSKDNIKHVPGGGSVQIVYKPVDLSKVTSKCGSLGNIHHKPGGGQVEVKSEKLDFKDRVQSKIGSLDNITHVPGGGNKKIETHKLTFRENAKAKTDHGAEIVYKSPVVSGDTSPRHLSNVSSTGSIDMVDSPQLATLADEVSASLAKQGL

- Kd: 40.9 nM
B1: hu37D3.v29.8 (peptide)
chain: EDLHSNADTYFL
